Measured values as given in IntAct's records for PubMed 21057455.

B1: SAGA complex subunit SPT8 (Saccharomyces cerevisiae), P38915 (parent)
chain: MDEVDDILINNQVVDDEEDDEEMLSGLENDSKQDLEGNDDGGEDEEDDDDDDEDDDDDEDEREDDDEQEDDDGEDDAARMDKTATPTNEHQHDEQKAAAAGAGGAGDSGDAVTKIGSEDVKLSDVDGGVGSREASSSTHEASANGEVYEYYKHMLNAAQIADSYNIYPTAAIPIQTHVNALAVSRGLKYLFLGGSDGYIRKYDLLNTLEGKLSLTILQKHSLAESIQNAGILQSYWENEIPQKKSEMKLSANKTDYEPKVSPVHSLEVQSECLFILSGLQNGGITMQGVRYMEGSIAHYFKGRNGHTQIVNILRLNGQEDRFLSGSWDKRLLEWDLQTGDIVNEFKKSRSELSSLEMRPLYSSVDVSGNVNSGKENENADDDMDSLFGDEDEDEKQDAGNEPVETGDGSNGEENKEQISEESLNIVYDESVFMTSGLNGSVHIWDRRMTQSPALSLERGAGVPPWCLSACWGVDGDHVYAGRRNACVEQFDLKMPSKPIHNLKLPSISGPVSCVKAMPNNKHLLCASRDNIRLYNVEIAVDASNSTTKSSKVPFLIVPGHHGGIISNLYLDPTSRFIISTSGNRGWQGNSTDTTLIYDIDLE
partner: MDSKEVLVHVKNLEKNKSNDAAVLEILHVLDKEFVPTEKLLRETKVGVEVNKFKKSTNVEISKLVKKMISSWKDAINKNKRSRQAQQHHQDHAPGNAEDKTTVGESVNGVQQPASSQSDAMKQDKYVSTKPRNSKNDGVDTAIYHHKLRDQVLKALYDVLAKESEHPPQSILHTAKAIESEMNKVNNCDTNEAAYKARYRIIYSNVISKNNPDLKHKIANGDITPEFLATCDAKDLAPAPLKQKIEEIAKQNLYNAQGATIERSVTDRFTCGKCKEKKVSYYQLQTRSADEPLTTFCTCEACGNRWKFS
B2: Transcription elongation factor SPT6 (Saccharomyces cerevisiae), P23615 (parent)
chain: MEETGDSKLVPRDEEEIVNDNDETKAPSEEEEGEDVFDSSEEDEDIDEDEDEARKVQEGFIVNDDDENEDPGTSISKKRRKHKRREREEDDRLSEDDLDLLMENAGVERTKASSSSGKFKRLKRVGDEGNAAESESDNVAASRQDSTSKLEDFFSEDEEEEESGLRNGRNNEYGRDEEDHENRNRTADKGGILDELDDFIEDDEFSDEDDETRQRRIQEKKLLREQSIKQPTQITGLSSDKIDEMYDIFGDGHDYDWALEIENEELENGNDNNEAEEEEIDEETGAIKSTKKKISLQDIYDLEDLKKNLMTEGDMKIRKTDIPERYQELRAGITDYGNMSSEDQELERNWIAEKISVDKNFDANYDLTEFKEAIGNAIKFITKENLEVPFIYAYRRNYISSREKDGFLLTEDDLWDIVSLDIEFHSLVNKKDYVQRFYAELHIDDPIVTEYFKNQNTASIAELNSLQDIYDYLEFKYANEINEMFINHTGKTGKKHLKNSSYEKFKASPLYQAVSDIGISAEDVGENISSQHQIHPPVDHPSSKPVEVIESILNANSGDLQVFTSNTKLAIDTVQKYYSLELSKNTKIREKVRSDFSKYYLADVVLTAKGKKEIQKGSLYEDIKYAINRTPMHFRRDPDVFLKMVEAESLNLLSVKLHMSSQAQYIEHLFQIALETTNTSDIAIEWNNFRKLAFNQAMDKIFQDISQEVKDNLTKNCQKLVAKTVRHKFMTKLDQAPFIPNVRDPKIPKILSLTCGQGRFGADAIIAVYVNRKGDFIRDYKIVDNPFDKTNPEKFEDTLDNIIQSCQPNAIGINGPNPKTQKFYKRLQEVLHKKQIVDSRGHTIPIIYVEDEVAIRYQNSERAAQEFPNKPPLVKYCIALARYMHSPLLEYANLTSEEVRSLSIHPHQNLLSSEQLSWALETAFVDIVNLVSVEVNKATDNNYYASALKYISGFGKRKAIDFLQSLQRLNEPLLARQQLITHNILHKTIFMNSAGFLYISWNEKRQKYEDLEHDQLDSTRIHPEDYHLATKVAADALEYDPDTIAEKEEQGTMSEFIELLREDPDRRAKLESLNLESYAEELEKNTGLRKLNNLNTIVLELLDGFEELRNDFHPLQGDEIFQSLTGESEKTFFKGSIIPVRVERFWHNDIICTTNSEVECVVNAQRHAGAQLRRPANEIYEIGKTYPAKVIYIDYANITAEVSLLDHDVKQQYVPISYSKDPSIWDLKQELEDAEEERKLMMAEARAKRTHRVINHPYYFPFNGRQAEDYLRSKERGEFVIRQSSRGDDHLVITWKLDKDLFQHIDIQELEKENPLALGKVLIVDNQKYNDLDQIIVEYLQNKVRLLNEMTSSEKFKSGTKKDVVKFIEDYSRVNPNKSVYYFSLNHDNPGWFYLMFKINANSKLYTWNVKLTNTGYFLVNYNYPSVIQLCNGFKTLLKSNSSKNRMNNYR
partner: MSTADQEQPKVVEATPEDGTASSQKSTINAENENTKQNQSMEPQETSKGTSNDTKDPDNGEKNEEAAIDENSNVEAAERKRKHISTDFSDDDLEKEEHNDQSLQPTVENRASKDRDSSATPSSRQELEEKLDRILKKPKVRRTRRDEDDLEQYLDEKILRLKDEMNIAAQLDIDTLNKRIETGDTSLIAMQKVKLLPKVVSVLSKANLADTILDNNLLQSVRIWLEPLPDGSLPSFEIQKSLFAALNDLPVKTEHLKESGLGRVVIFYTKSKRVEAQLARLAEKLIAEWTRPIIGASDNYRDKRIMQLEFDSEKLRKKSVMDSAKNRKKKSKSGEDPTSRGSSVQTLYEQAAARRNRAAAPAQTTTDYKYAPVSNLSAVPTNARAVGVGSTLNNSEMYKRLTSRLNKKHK
B3: Mediator of RNA polymerase II transcription subunit 13 (Saccharomyces cerevisiae), P38931 (parent)
chain: MSSDASTYRLEDVLSSFYRVEKIKKINYHQYISKAQNDQWSIQMEFMLRKQDPKTLVALLSRDLWCFSINDDPVPTPPAIEHKPVSPDKIGTFTADYSKPNLPPHYALFLKALRRKIYINLALGSHNKLIQFGNACISLSGVPNYLVQLEPHLFVNGDLTVSLCAKNMGLVPMKEENLEESFLSKHALYLAPSGIRMHLAPASKQGYLITPPKHTELLLTTLSVSHGINLQNKKNLKWVAVVPDLGHLNGHTPTIASYLTPLLEAKKLVWPLHLIFAQPVADIENSTSGDPSEFHCLQDALDAIDDFIQLKQTAAYRTPGSSGVLSSNIAGTNPLSSDGAYTEQFQHYKNNSISSQPASYHSVQETNKISPKDFSPNFTGIDKLMLSPSDQFAPAFLNTPNNNINENELFNDRKQTTVSNDLENSPLKTELEANGRSLEKVNNSVSKTGSVDTLHNKEGTLEQREQNENLPSDKSDSMVDKELFGEDEDEDLFGDSNKSNSTNESNKSISDEITEDMFEMSDEEENNNNKSINKNNKEMHTDLGKDIPFFPSSEKPNIRTMSGTTKRLNGKRKYLDIPIDEMTLPTSPLYMDPGAPLPVETPRDRRKSVFAPLNFNPIIENNVDNKYKSGGKFSFSPLQKEEALNFDISMADLSSSEEEEDEEENGSSDEDLKSLNVRDDMKPSDNISTNTNIHEPQYINYSSIPSLQDSIIKQENFNSVNDANITSNKEGFNSIWKIPQNDIPQTESPLKTVDSSIQPIESNIKMTLEDNNVTSNPSEFTPNMVNSEISNLPKDKSGIPEFTPADPNLSFESSSSLPFLLRHMPLASIPDIFITPTPVVTISEKEQDILDLIAEQVVTDYNILGNLGIPKIAYRGVKDCQEGLITTTMLQLFSTFDRLNGNDTISKFYNMKQPYVFVKKHHELIKVKHDSQPFIKFLNFRPPNGIKNFKSLLLSSSFKEDCLSFAPTLSQTYINQELGFCELLKLTNEDPPGLMYLKAFDKNKLLLLAAQIVSYCSNNKNSIKNVPPILIILPLDNATLTELVDKANIFQVIKNEVCAKMPNIELYLKVIPMDFIRNVLVTVDQYVNVAISIYNMLPPKSVKFTHIAHTLPEKVNFRTMQQQQMQQQQQQQQQQQNNSTGSSSIIYYDSYIHLAYSRSVDKEWVFAALSDSYGQGSMTKTWYVGNSRGKFDDACNQIWNIALNLASKKFGKICLILTRLNGILPDDELMNWRRLSGRNIHLAVVCVDDNSKISFIDEDKLYPSFKPIYKDTRFGGRMDMTRLYDYEIRDIDQDIHGIVFQHPFPLAHSQHRCAIRSGALIKFKKCDGDTVWDKFAVNLLNCPHSDSTQLLETILEEFRNLAALNVWYGLSDGEDGHIPWHILAVKKMMNTLVHTRVKIANTSAATVHTATSSSIILSDK
partner: B1 partner

Variants of: B1
Conditions: with tfs2_yeast DST1, P07273
For L386A, the “effect of a mutation on the interaction” value was “disrupting interaction”.
With F387A the “effect of a mutation on the interaction” value was “disrupting interaction”.

Variants of: B2
Conditions: with iws1_yeast SPN1, Q06505
For I248A, the “effect of a mutation on the interaction” value was “disrupting interaction”.
In the case of F249A, the “effect of a mutation on the interaction” value is reported as “disrupting interaction”.

Variants of: B3
Conditions: with tfs2_yeast DST1, P07273
In the case of F484A, the “effect of a mutation on the interaction” value is reported as “decreasing interaction”.
For L483A, the “effect of a mutation on the interaction” value was “decreasing interaction”.
